For data set [1], the target named is T1, CCT4 subunit of yeast TRiC/CCT (yeast, UniProt P39078 1-528).
T1 construct: CCT4 subunit of the chaperonin TRiC/CCT, yeast; subunit of the purified hetero-oligomeric complex; Purified according to Zang et al., 2016; source: endogenous, purified from yeast lysate as part of TRiC (calmodulin resin, eluted with 2 mM EGTA)
The experiment in a line: cryo-EM structure; purified yeast TRiC, 1 mg/ml, with 1 mM ADP and 5 mM MgCl2, 15 min at 30 °C before freezing; five conformational states S1-S5 (closed to open) from one sample; contacts differ between the states. Conditions: both partners purified.

Data set [2] deals with the molecule itself. The description is as above.

Consider two molecules from PMC11894413, “The conformational landscape of TRiC ring-opening and its underlying stepwise mechanism revealed by cryo-EM” (QRB Discovery, 2024).

T1 sequence (P39078 whole entry): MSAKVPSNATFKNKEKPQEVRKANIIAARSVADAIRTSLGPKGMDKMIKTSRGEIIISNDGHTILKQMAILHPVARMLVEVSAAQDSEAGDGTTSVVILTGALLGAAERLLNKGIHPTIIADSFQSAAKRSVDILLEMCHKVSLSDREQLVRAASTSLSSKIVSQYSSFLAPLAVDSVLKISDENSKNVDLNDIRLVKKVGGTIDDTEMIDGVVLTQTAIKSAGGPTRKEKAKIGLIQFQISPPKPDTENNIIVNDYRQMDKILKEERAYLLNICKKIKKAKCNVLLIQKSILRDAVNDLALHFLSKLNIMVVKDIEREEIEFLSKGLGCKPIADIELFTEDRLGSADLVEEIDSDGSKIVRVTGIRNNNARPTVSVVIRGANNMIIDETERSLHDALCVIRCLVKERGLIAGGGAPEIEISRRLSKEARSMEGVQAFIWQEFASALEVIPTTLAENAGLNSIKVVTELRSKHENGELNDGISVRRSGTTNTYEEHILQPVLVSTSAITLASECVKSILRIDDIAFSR

B1: CCT2 subunit of yeast TRiC/CCT (natural protein, UniProt P39076 1-527, looked up)
chain: MSVQIFGDQVTEERAENARLSAFVGAIAVGDLVKSTLGPKGMDKLLQSASSNTCMVTNDGATILKSIPLDNPAAKVLVNISKVQDDEVGDGTTSVTVLSAELLREAEKLIDQSKIHPQTIIEGYRLASAAALDALTKAAVDNSHDKTMFREDLIHIAKTTLSSKILSQDKDHFAELATNAILRLKGSTNLEHIQIIKILGGKLSDSFLDEGFILAKKFGNNQPKRIENAKILIANTTLDTDKVKIFGTKFKVDSTAKLAQLEKAEREKMKNKIAKISKFGINTFINRQLIYDYPEQLFTDLGINSIEHADFEGVERLALVTGGEVVSTFDEPSKCKLGECDVIEEIMLGEQPFLKFSGCKAGEACTIVLRGATDQTLDEAERSLHDALSVLSQTTKETRTVLGGGCAEMVMSKAVDTEAQNIDGKKSLAVEAFARALRQLPTILADNAGFDSSELVSKLRSSIYNGISTSGLDLNNGTIADMRQLGIVESYKLKRAVVSSASEAAEVLLRVDNIIRARPRTANRQHM
notes: CCT2 subunit of the chaperonin TRiC/CCT, yeast; subunit of the purified hetero-oligomeric complex; Purified according to Zang et al., 2016; source: endogenous, purified from yeast lysate as part of TRiC (calmodulin resin, eluted with 2 mM EGTA)
Regarding B1, the binding result in data set [1] and in data set [2] was “binds” each time.

B2: CCT6 subunit of yeast TRiC/CCT (natural protein)
chain: not shown
notes: CCT6 subunit of the chaperonin TRiC/CCT, yeast; subunit of the purified hetero-oligomeric complex; Purified according to Zang et al., 2016; source: endogenous, purified from yeast lysate as part of TRiC (calmodulin resin, eluted with 2 mM EGTA)
Turning to B2, the binding result in data set [2] is listed as “binds”.
